According to patent US9018171B2, “Uses of an immunomodulatory protein (GMI) from Ganoderma microsporum” (Mycomagic Biotechnology Co., Ltd., priority 2010, dated 2015):
Entries after “also recorded” stand apart in the source; their conditions may differ.

Experiments:
[1] = test system: A549 cells; assay: Wound-healing assay; format: cell-based, human; settings: 24 h
Experimental: Wound-healing assay was carried out to evaluate the inhibitory effects of (A) GMI or (B) AG1478 on A549 cell migration. Confluent monolayers of A549 cells were scarred, and repair was monitored microscopically after 24 h of treatment with (A) GMI or (B) AG1478. The cells migrating into the wound area were counted on the basis of the dashed line as time zero. On wound-healing assay, the cancer cells were cultured onto 24-well plates and grown in medium containing 10% FBS to nearly confluent cell monolayer. A plastic pipette tip was used to draw a linear “wound” in the cell monolayer of each well. The monolayer was then washed twice with PBS to remove debris or detached cells, and GMI was added at different concentrations ([…]). PBS was added to the control well as the solvent control. After 24 h of incubation, the cells were washed twice with PBS, fixed with 95% alcohol, and stained with 10% Giemsa solution (Merck). The cells were photographed under a light microscope (magnification, ×200). The experiments were performed in triplicate. After incubation with 2-8 μg/ml of GMI for 24 h, the cells that migrated to the denuded zone were photographed.

[2] = test system: A549 cells; assay: Cell invasion assay (modified Boyden chamber, Matrigel); format: cell-based, human
Experimental: A549 cells (2×10^4 cells/well) were seeded onto the upper chamber of membrane and treated with different concentrations of GMI (4, 8, 16 μg/ml) for 2 hours. The bottom chamber was filled with DMEM supplemented with EGF 10 ng/ml or 100 ng/ml. After about 24 h, the invasive A549 cells passed through the membrane and were quantified by counting the cells that migrated onto the membrane. Cells were fixed, stained, and counted as described in the text. The data represent mean±SD.
Cell invasion assays were performed using modified Boyden chambers 6.5 mm in diameter, with […] porous (8 μm) polycarbonate membrane separating the two chambers (Transwell; Costar, Cambridge, Mass.). The membrane of the upper chamber was coated with Matrigel (0.3 mg/mL; BD Biosciences Discovery Labware) for 3 hours. Condition medium was prepared from A549 cells which were pretreated with or without GMI, LY294002 (50 μM), or AG1478 (2 μM) for 8 h. To the medium of the bottom chamber was added 10% FBS-DMEM containing EGF (10 ng/ml) or condition medium. Cells were trypsinized, centrifuged, and resuspended at 4×10^5 cells/mL in 0.5% FBS-DMEM. After 24 h incubation, the cells on the upper well and the membranes coated with Matrigel were fixed with methanol, and stained with 20% Giemsa solution (Merck). The cells that were attached to the lower surface of the polycarbonate filter were counted under a light microscope (magnification, X 100). The experiments were performed in triplicate.

[3] = test system: A549 cells; assay: Actin staining; format: cell-based, human
Experimental: A549 cells (1×10^4 cells/well) were seeded onto 24 wells with coverslip. A549 cells were pretreated with various concentrations of GMI (2, 4, 8 μg/ml) for 1 h before being stimulated with 10 ng/mL EGF for 23 h. A549 cells treated with or without EGF were stained with Texas Red®-X phalloidin and Alexa Fluor 488 DNase I conjugate to detect F-actin (red) and G-actin (green).
Cells were washed twice with PBS and fixed in a 3.7% paraformaldehyde-PBS solution for 10 min at room temperature. After two additional washes with PBS, cells were permeabilized with a solution of 0.1% Triton X-100 in PBS for 3 to 5 min and washed again with PBS. Texas Red-X phalloidin (2 units/mL) and Alexa Fluor 488 DNase I conjugate (9 μg/mL) were used to localize filamentous actin (F-actin) and G-actin. Fluorescent dyes were diluted with blocking solution (1% bovine serum albumin and 0.025% saponin in PBS) and added to coverslips for 60 min at room temperature. After three washes with PBS, coverslips were mounted on a microscope slide with Prolong Gold antifade reagent with DAPI (Life Technologies). F-actin cytoskeleton imaging was performed with a confocal laser scanning microscope (ZEISS LSM510 BETA) at ×400 magnification.

[4] = test system: MALME-3M; assay: NCI60 in vitro screening, Melanoma; format: cell-based
[5] = test system: UACC-62; assay: NCI60 in vitro screening, Melanoma; format: cell-based
[6] = test system: OVCAR-5; assay: NCI60 in vitro screening, Ovarian Cancer; format: cell-based
[7] = test system: SK-OV-3; assay: NCI60 in vitro screening, Ovarian Cancer; format: cell-based
[8] = test system: 786-0; assay: NCI60 in vitro screening, Renal Cancer; format: cell-based
[9] = test system: ACHN; assay: NCI60 in vitro screening, Renal Cancer; format: cell-based
[10] = test system: MDA-MB-231/ATCC; assay: NCI60 in vitro screening, Breast Cancer; format: cell-based

B1: GMI: immunomodulatory protein from Ganoderma microsporum, amino acid sequence SEQ ID NO: 3, manufactured by Mycomagic Biotechnology Co., Ltd. (protein, listed as Ganoderma microsporum)
chain: MSDTALIFTLAWNVKQLAFDYTPNWGRGRPSSFIDTVTFPTVLTDKAYTYRVVVSGKDLGVRPSYAVESDGSQKINFLEYNSGYGIADTNTIQVYVIDPDTGNNFIVAQWN
- A549 cell migration to the denuded zone ([1]; GMI 2-8 μg/ml): dose-dependently suppresses A549 cell migration
- EGF-induced migration / wound closure activity ([1]; co-treated with EGF): markedly decreased wound closure activity
- EGF-promoted invasion reduced to ([2]; GMI 4 μg/ml, EGF): 52%
- invaded cell number ([2]; GMI 4 μg/ml, EGF, decreased from 2515±212): 1306±30
- invasion reduced to ([2]; GMI 4 μg/ml, without EGF): 22%
- invaded cell number ([2]; GMI 4 μg/ml, without EGF, decreased from 1895±37): 419±6
- EGF-promoted invasion reduced to ([2]; GMI 16 μg/ml, EGF): less than 5%
- invaded cell number ([2]; GMI 16 μg/ml, EGF, decreased from 2515±212): 121±39
- invasion reduced to ([2]; GMI 16 μg/ml, without EGF): less than 9%
- invaded cell number ([2]; GMI 16 μg/ml, without EGF, decreased from 1895±37): 61±3
- EGF-promoted invasion of A549 cells ([2]; increasing concentrations of GMI, EGF): significantly inhibits; also recorded: dose-dependent decrease in EGF-promoted invasion
- invasion of A549 cells ([2]; increasing concentrations of GMI, without EGF): dose-dependent decrease in invasion
- elongation and polymerization of F-actin and G-actin ([3]; A549 cells treated with EGF or GMI alone): abrogated
- filopodia formation ([3]; A549 cells, GMI 2, 4, 8 μg/ml, EGF 10 ng/mL): fewer filopodia fibers
- focal contact size ([3]; A549 cells, GMI alone and combined with EGF): reduced by GMI in a dose-dependent manner
- TGI [4]: >1.25E2
- Percent Growth ([4]; Log10 Concentration 0.1): 118%
- Percent Growth ([4]; Log10 Concentration 1.1): 114%
- Percent Growth ([4]; Log10 Concentration 2.1): 74%
- Percent Growth ([4]; Log10 Concentration −0.9): 102%
- Percent Growth ([4]; Log10 Concentration −1.9): 100%
- Growth Percent ([4]; one dose): 114.17%
- TGI ([5]; UACC-62): >1.25E2
- Percent Growth ([5]; UACC-62, Log10 Concentration 0.1): 99%
- Percent Growth ([5]; UACC-62, Log10 Concentration 1.1): 106%
- Percent Growth ([5]; UACC-62, Log10 Concentration 2.1): 68%
- Percent Growth ([5]; UACC-62, Log10 Concentration −0.9): 101%
- Percent Growth ([5]; UACC-62, Log10 Concentration −1.9): 105%
- Growth Percent ([5]; UACC-62, one dose): 115.96%
- TGI ([6]; OVCAR-5): >1.25E2
- Percent Growth ([6]; OVCAR-5, Log10 Concentration 0.1): 98%
- Percent Growth ([6]; OVCAR-5, Log10 Concentration 1.1): 89%
- Percent Growth ([6]; OVCAR-5, Log10 Concentration 2.1): 66%
- Percent Growth ([6]; OVCAR-5, Log10 Concentration −0.9): 100%
- Percent Growth ([6]; OVCAR-5, Log10 Concentration −1.9): 101%
- Growth Percent ([6]; OVCAR-5, one dose): 107.85%
- TGI ([7]; SK-OV-3): >1.25E2
- Percent Growth ([7]; SK-OV-3, Log10 Concentration 0.1): 107%
- Percent Growth ([7]; SK-OV-3, Log10 Concentration 1.1): 94%
- Percent Growth ([7]; SK-OV-3, Log10 Concentration 2.1): 55%
- Percent Growth ([7]; SK-OV-3, Log10 Concentration −0.9): 103%
- Percent Growth ([7]; SK-OV-3, Log10 Concentration −1.9): 103%
- Growth Percent ([7]; SK-OV-3, one dose): 89.18%
- TGI ([8]; 786-0): >1.25E2
- Percent Growth ([8]; 786-0, Log10 Concentration 0.1): 111%
- Percent Growth ([8]; 786-0, Log10 Concentration 1.1): 73%
- Percent Growth ([8]; 786-0, Log10 Concentration 2.1): 4%
- Percent Growth ([8]; 786-0, Log10 Concentration −0.9): 99%
- Percent Growth ([8]; 786-0, Log10 Concentration −1.9): 100%
- Growth Percent ([8]; 786-0, one dose): 74.75%
- GI50 ([8]; 786-0, in µg/mL): 2.70E1
- TGI [9]: 3.62E1
- Percent Growth ([9]; Log10 Concentration 0.1): 103%
- Percent Growth ([9]; Log10 Concentration 1.1): 36%
- Percent Growth ([9]; Log10 Concentration 2.1): −42%
- Percent Growth ([9]; Log10 Concentration −0.9): 99%
- Percent Growth ([9]; Log10 Concentration −1.9): 109%
- GI50 ([9]; in µg/mL): 7.65E0
- Growth Percent ([9]; one dose): −33.94%
- TGI [10]: 3.65E1
- Percent Growth ([10]; Log10 Concentration 0.1): 93%
- Percent Growth ([10]; Log10 Concentration 1.1): 41%
- Percent Growth ([10]; Log10 Concentration 2.1): −47%
- Percent Growth ([10]; Log10 Concentration −0.9): 96%
- Percent Growth ([10]; Log10 Concentration −1.9): 103%
- GI50 ([10]; in µg/mL): 8.34E0
- Growth Percent ([10]; one dose): 23.69%
